Measurements reported in patent publication US7439017B2, “Assays for measuring nucleic acid binding proteins and enzyme activities” (BioVeris Corporation, priority 1998, dated 2008).

System: RuBpy-labeled Sheep anti-mouse IgG coated beads
Experiment: ECL-based assay for the measurement of protease activity
Assay type: biochemical
Details: in words, 30 minutes at 37° C., solution phase, FIG. 9
Description: This assay system consists of a ruthenylated (RuBpy-labeled) substrate immobilized on paramagnetic beads and the enzyme of interest. The RuBpy label is released by the action of the enzyme. The ECL of the free label is measured using the ORIGEN Analyzer (IGEN International).
Dynabead® M280 Sheep anti-mouse IgG coated beads (IGEN International, Inc.) were RuBpy-labeled at a 200:1 challenge ratio of RuBpy to IgG to introduce RuBpy groups on the immobilized IgG molecules. The labeling was carried out using a derivative of RuBpy linked to an NHS ester (TAG-NHS, IGEN International) according to established procedures. The beads were then washed three times, thirty minutes each, at 4° C. with equal volumes of PBS, pH 7.8, and once overnight at 4° C. Replicate test samples were prepared with 100 μl of solutions containing known amounts of Proteinase K (Sigma) in phosphate buffered saline, pH 7.8 and 25 μl of 1.2 mg/ml TAG labeled Sheep anti-mouse beads. […] The reaction was quenched by the addition of 1 mL of a solution containing tripropylamine (ORIGEN Assay Buffer, IGEN International, Inc.) and the protease activity was quantitated on the ORIGEN 1.5 Analyzer with the solution phase default settings (i.e., the beads are kept in suspension so as to preferentially measure ECL at the electrode from RuBpy groups in solution) except for high vortex speed.

B1: Proteinase K: Proteinase K (Sigma), protease measured in the ECL assay (protein, UniProt P06873 106-384, looked up)
Proteinase K: AAQTNAPWGLARISSTSPGTSTYYYDESAGQGSCVYVIDTGIEASHPEFEGRAQMVKTYYYSSRDGNGHGTHCAGTVGSRTYGVAKKTQLFGVKVLDDNGSGQYSTIIAGMDFVASDKNNRNCPKGVVASLSLGGGYSSSVNSAAARLQSSGVMVAVAAGNNNADARNYSPASEPSVCTVGASDRYDRRSSFSNYGSVLDIFGPGTSILSTWIGGSTRSISGTSMATPHVAGLAAYLMTLGKTTAASACRYIADTANKGDLSNIPFGTVNLLAYNNYQA
  ECL signal as a function of the concentration of enzyme: directly related to the concentration of enzyme
